From patent US20260234276A1 (DOMAIN THERAPEUTICS, published 2026)
“And” between values parts separate entries of the source, which are not always exact repeats. Equal entries are not always repeated. One block for each binder: values may come before it.

Key:
human CCR8 [1] = target: T1, human CCR8 (human, UniProt P51685 1-355); assay: flow cytometry, hCCR8 transfected CHOK1 cells
T1 construct: the cells are named under assay; also called hCCR8
Procedure: (§1) Briefly, 1·10⁵ cells per well in a 96 well plate were incubated with a dilution of unconjugated anti-CCR8 mAb at 10 μg/mL then diluted at 1/3.33, 4 dilution points (during 30 min at 4° C.). […] To determine EC50 value, 8 concentrations of anti-CCR8 mAb were tested. Unbound antibodies were washed away with PBS (Invitrogen by Thermofisher Scientific, Illkirch-Graffenstaden, France) supplemented by 2% Fetal Bovine Serum (Invitrogen by Thermofisher Scientific, Illkirch-Graffenstaden, France) and 2 mM EDTA (Invitrogen by Thermofisher Scientific, Illkirch-Graffenstaden, France). Subsequently, cells are centrifuged (5 min at 400 g) and bound antibody is detected with F(ab′)₂-Goat anti-Mouse IgG (H+L) Cross-Adsorbed Secondary Antibody, Alexa Fluor 488 (dilution 1/500) (Invitrogen by Thermofisher Scientific, Illkirch-Graffenstaden, France) or with F(ab′)₂-Goat anti-Human IgG Fc Secondary Antibody, PE (Invitrogen by Thermofisher Scientific, Illkirch-Graffenstaden, France) (dilution 1/1000) at 4° C. for 30 min. Detection reagent is washed away and cells are centrifuged (5 min at 400 g) and resuspended in 30 μL PBS. Bound detection antibody is quantified on a MacsQuant16 (Miltenyi, Gladbach, Germany) (B1 or B2 channel, 5000 events per acquisition).
EC50 values were not constantly determined in the same experiments.

human CCR8 [2] = target: T1, human CCR8; assay: competition HTRF on HEK-293 cells with hCCR8; blocked ligand CCL1-AF647 [cont.]
human CCR8 [3] = target: T1, human CCR8; assay: flow cytometry, HUT78 cells (native CCR8)
Procedure: The same staining protocol was applied on human CCR8 transfected CHO cell line versus wild type CHO cell line, cutaneous T cell lymphoma HUT78 cell line and human activated T cell model.
as §1

human CCR8 [4] = target: T1, human CCR8; assay: cell-based or functional assay
human CCR8 [5] = target: T1, human CCR8; assay: cell-based or functional assay; remark: listed apart in the source
human CCR8 [6] = target: T1, human CCR8; assay: flow cytometry, human activated T cells pre-incubated with 200 nM hCCL1
Procedure: as §1
(§2) Binding characteristics of anti-CCR8 mAb cellular reactivity was further investigated by testing their binding to activated T cells.

human CCR8 [7] = target: T1, human CCR8; assay: cell-based or functional assay; remark: listed apart in the source
human CCR8 [8] = target: T1, human CCR8; assay: cell-based or functional assay; remark: listed apart in the source
human CCR8 [9] = target: T1, human CCR8; assay: flow cytometry, human activated T cells
Procedure: as §1, §2

human CCR8 [10] = target: T1, human CCR8; assay: flow cytometry, hCCR8 transfected CHOK1 cells; remark: listed apart in the source
human CCR8 [11] = target: T1, human CCR8; assay: competition flow cytometry on hCCR8 transfected CHO cells; blocked ligand CCL1-AF647 [cont.]
pm8 = pm8 (human, sulfated tyrosines at Y15, Y16 and Y17); assay: ELISA on coated peptide [cont.]
Chain of pm8 (human, sulfated tyrosines at Y15, Y16 and Y17) (peptide, as listed by the source): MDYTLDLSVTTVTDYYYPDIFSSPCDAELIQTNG
Outline: (§3)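 Anti-CCR8 mAbs tested at 1 μg/mL and then diluted 1/10 on CCR8-related peptides coated at 500 ng/mL in carbonate/bicarbonate buffer, 90 min at room temperature. Bound antibody developed with TMB for 15 min; optical density read as mAb reactivity.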

pm6 = pm6 (human, sulfated tyrosines at Y16 and Y17); assay: ELISA on coated peptide [cont.]
Chain of pm6 (human, sulfated tyrosines at Y16 and Y17) (peptide, as listed by the source): as above
Outline: as §3

pm3 = pm3 (human, sulfated tyrosine at Y17); assay: ELISA on coated peptide [cont.]
Chain of pm3 (human, sulfated tyrosine at Y17) (peptide, as listed by the source): as above
Outline: as §3

pm5 = pm5 (human, sulfated tyrosines at Y15 and Y17); assay: ELISA on coated peptide [cont.]
Chain of pm5 (human, sulfated tyrosines at Y15 and Y17) (peptide, as listed by the source): as above
Outline: as §3

CCR8 SNAP-tag = CCR8 SNAP-tag (human, UniProt P51685 1-355, SNAP-tag labelled with Lumi4-Terbium); assay: cell-based or functional assay
human CCR8 [12] = target: T1, human CCR8; assay: competition flow cytometry on hCCR8 transfected CHO cells; blocked ligand CCL1-AF647
human CCR8 [13] = target: T1, human CCR8; assay: competition HTRF on HEK-293 cells with hCCR8; blocked ligand CCL1-AF647 [cont.]; remark: listed apart in the source
pm2 = pm2 (human, sulfated tyrosine(s) among Tyr 15, Tyr 16, Tyr 17; marked only by underlining, lost in the text); assay: ELISA on coated peptide [cont.]
Chain of pm2 (human, sulfated tyrosine(s) among Tyr 15, Tyr 16, Tyr 17; marked only by underlining, lost in the text) (peptide, as listed by the source): as above
Outline: as §3

pwt1 = target: T2, pwt1 (human); assay: ELISA on coated peptide [cont.]
T2 construct: also called unmodified peptide
T2 sequence (peptide, as listed by the source): as above
Outline: as §3

pm4 = pm4 (human, sulfated tyrosine(s) among Tyr 15, Tyr 16, Tyr 17; marked only by underlining, lost in the text); assay: ELISA on coated peptide [cont.]
Chain of pm4 (human, sulfated tyrosine(s) among Tyr 15, Tyr 16, Tyr 17; marked only by underlining, lost in the text) (peptide, as listed by the source): as above
Outline: as §3

pm1 = pm1 (human, sulfated tyrosine(s) among Tyr 15, Tyr 16, Tyr 17; marked only by underlining, lost in the text); assay: ELISA on coated peptide [cont.]
Chain of pm1 (human, sulfated tyrosine(s) among Tyr 15, Tyr 16, Tyr 17; marked only by underlining, lost in the text) (peptide, as listed by the source): as above
Outline: as §3

- EC50 (human CCR8 [1]): 0.1 nM
- IC50 (read off the curve) (human CCR8 [2]): ~0.02 µg/mL
- % of labelled cells (human CCR8 [3]): 93%
- IC50 (Gi2 BRET, pH 6.5) (human CCR8 [4]): 0.018 µg/ml and 0.12 nM
- IC50 (Gi2 BRET, pH 7.4) (human CCR8 [4]): 0.02 µg/ml and 0.134 nM
- hCCL1 (100 nM) residual response, Protocol #2, mAb 0.08 µg/mL (human CCR8 [5]): 85%
- hCCL1 (100 nM) residual response, Protocol #2, mAb 0.4 µg/mL (human CCR8 [5]): 94%
- hCCL1 (100 nM) residual response, Protocol #2, mAb 10 µg/mL (human CCR8 [5]): 60%
- hCCL1 (100 nM) residual response, Protocol #3, mAb 0.05 µg/mL (human CCR8 [5]): 93%
- hCCL1 (100 nM) residual response, Protocol #3, mAb 0.5 µg/mL (human CCR8 [5]): 85%
- hCCL1 (100 nM) residual response, Protocol #3, mAb 5 µg/mL (human CCR8 [5]): 62%
- % of labelled cells (human CCR8 [6]): 54%
- ADCC % Max lysis, NK cells Donor 3 (human CCR8 [7]): 16%
- ADCC % Max lysis, NK cells Donor 4 (human CCR8 [7]): 19%
- ADCC EC50, NK cells Donor 3 (human CCR8 [7]): 0.349 nM
- ADCC EC50, NK cells Donor 4 (human CCR8 [7]): 1.91 nM
- Top plateau value (% of hCCL1 100 nM) with 5 µg/mL mAb, Protocol #3 (human CCR8 [8]): 794%
- % of labelled cells (human CCR8 [9]): 63%
B1: 3-82 (antibody, human IgG1, kappa, V domains shown)
VH: QVQLVESGGGVVQPGRSLRLSCAASGFTFSNYRMHWVRQAPGKGLEWIAVIKVKSDNYGANYADSVKGRFTISRDNSKNTLYLQMNSLRAEDTAVYYCSSPTYPGSSGFAYWGQGTLVTVSS
VL: DIQMTQSPSSLSASVGDRVTITCRASQDISNYLNWYQQKPDGTVKLLIYYTSRLHTGVPSRFSGSGSGTDYTLTISNLQQEDIATYFCQQGNKFPPTFGGGTKVEINR
notes: humanized, human IgG1 kappa

- % positive cells (human CCR8 [10]): 72.8%
- MFI fold change to isotype ctrl (human CCR8 [10]): 6.32 fold
- IC50 (read off the curve) (human CCR8 [11]): ~1 µg/mL
- IC50 (Gi2 BRET, pH 6.5) (human CCR8 [4]): 0.021 µg/ml and 0.143 nM
- IC50 (Gi2 BRET, pH 7.4) (human CCR8 [4]): 0.163 nM and 0.024 µg/ml
- hCCL1 (100 nM) residual response, Protocol #2, mAb 0.08 µg/mL (human CCR8 [5]): 81%
- hCCL1 (100 nM) residual response, Protocol #2, mAb 0.4 µg/mL (human CCR8 [5]): 69%
- hCCL1 (100 nM) residual response, Protocol #2, mAb 10 µg/mL (human CCR8 [5]): 44%
- hCCL1 (100 nM) residual response, Protocol #3, mAb 0.05 µg/mL (human CCR8 [5]): 77%
- hCCL1 (100 nM) residual response, Protocol #3, mAb 0.5 µg/mL (human CCR8 [5]): 57%
- hCCL1 (100 nM) residual response, Protocol #3, mAb 5 µg/mL (human CCR8 [5]): 49%
- binding result (pm8): binds
- binding result (pm6): binds
- binding result (pm3): binds
- binding result (pm5): binds
B2: 3-5 (antibody, V domains shown)
VH: EVQLLESGGGLVQPKGSLKLSCAASGFTFNPYAMNWVRQAPGRGLEWVARIRSKSNNYATYYADSVKDRFTISRDDSQDMLYLQMNNLKTEDTAMYYCVRGREAYYRYDGDYYAMDYWGQGTSVTVSS
VL: DIVMTQAAPSVPVTPGESVSISCRSSKSLLHSNGNTYLYWFLQRPGQSPQLLIYRMSNLASGVPDRFSGSGSGTAFTLRISRVEAEDVGVYYCMQHLEYPFTFGSGTKLEIK

- % positive cells (human CCR8 [10]): 75.1%
- MFI fold change to isotype ctrl (human CCR8 [10]): 8.7 fold
- % of internalization at 1 µg/ml mAb (HTRF) (CCR8 SNAP-tag): 126%
- % of internalization at 10 µg/ml mAb (HTRF) (CCR8 SNAP-tag): 111%
- IC50 (read off the curve) (human CCR8 [12]): ~0.7 µg/mL
B3: Ref #1 (antibody, human IgG1, V domains shown)
VH: EVQLLESGGGLVQPGGSLRLSCAASGFTFSSYGMHWVRQAPGKGLEWVSAINWNGGSTGYADSVKGRFTISRDNSKNTLYLQMNSLRAEDTAVYYCARGHHSGYDGRFFDYWGQGTLVTVSS
VL: QSVLTQPPSVSGAPGQRVTISCTGSSSNIGAGYNVHWYQQLPGTAPKLLIYTNNRRPSGVPDRFSGSKSGTSASLAISGLRSEDEADYYCAAWDASLSGWVFGGGTKLTVL
notes: benchmark from WO 2021/260210; human IgG1, produced in CHO; also called TPP-21360

- % of labelled cells (human CCR8 [3]): 96%
- IC50 (Gi2 BRET, pH 6.5) (human CCR8 [4]): 0.011 µg/ml and 0.072 nM
- IC50 (Gi2 BRET, pH 7.4) (human CCR8 [4]): 0.022 µg/ml and 0.148 nM
- % of internalization at 1 µg/ml mAb (HTRF) (CCR8 SNAP-tag): 44%
- % of internalization at 10 µg/ml mAb (HTRF) (CCR8 SNAP-tag): 29%
- hCCL1 (100 nM) residual response, Protocol #2, mAb 0.08 µg/mL (human CCR8 [5]): 67%
- hCCL1 (100 nM) residual response, Protocol #2, mAb 0.4 µg/mL (human CCR8 [5]): 55%
- hCCL1 (100 nM) residual response, Protocol #2, mAb 10 µg/mL (human CCR8 [5]): 32%
- hCCL1 (100 nM) residual response, Protocol #3, mAb 0.05 µg/mL (human CCR8 [5]): 86%
- hCCL1 (100 nM) residual response, Protocol #3, mAb 0.5 µg/mL (human CCR8 [5]): 60%
- hCCL1 (100 nM) residual response, Protocol #3, mAb 5 µg/mL (human CCR8 [5]): 42%
- IC50 (read off the curve) (human CCR8 [13]): ~0.03 µg/mL
- binding result (pm8): binds
- binding result (pm6): binds
- binding result (pm3): binds
- binding result (pm2): binds
- binding result (pwt1): binds
- binding result (pm4): binds
- binding result (pm5): binds
- binding result (pm1): binds
- ADCC % Max lysis, NK cells Donor 3 (human CCR8 [7]): 15%
- ADCC % Max lysis, NK cells Donor 4 (human CCR8 [7]): 16%
- ADCC EC50, NK cells Donor 3 (human CCR8 [7]): 0.505 nM
- ADCC EC50, NK cells Donor 4 (human CCR8 [7]): 0.573 nM
B4: 3-80 (antibody, human IgG1, kappa, V domains shown)
VH: QVQLVQSGPEVVKPGASVKVSCKTSGYTFTEYTIHWVRQAPGQSLEWVGGINPNNGNTRYDQKFQGRVTITRDKSASTAYMELRSLTSEDTAVYYCARVARSSGSGPYAMDYWGQGTTVTVSS
VL: DVVMTQSPLSLPVTLGDQASISCRCSQSLLHTNGDTYLHWYLQRPGQSPRLLIYKVSNRFSGVPDRFSGSGSGTDFTLKISRVEAEDVGVYFCSQSTHVPYTFGGGTKVEIKR
notes: humanized, human IgG1 kappa
